Source: US20120171210A1, “METHODS AND COMPOSITIONS FOR INHIBITING C-MET DIMERIZATION AND ACTIVATION” (Genentech, Inc., priority 2003, published 2012)

Key:
MAPK [1] = assay: MAPK phosphorylation in A549 cells (immunoblot); assay type: cell-based, Human
Experimental: (§1) Cell lines were obtained from American Type Culture Collection (ATCC). 293 cells were maintained in DMEM supplemented with 10% FBS (Sigma), penicillin/streptomycin (GIBCO), and glutamine A549, H441, and MDA-MB-435 cells were maintained in 50:50 DMEM/F12 (Cellgro) supplemented with 10% FBS, penicillin/streptomycin, and glutamine Cells were transfected with 1-12 μg of the indicated constructs using Lipofectamine 2000 (Invitrogen) according to manufacturer's instructions. Twenty-four hrs later cells were harvested with 1% NP40 lysis buffer containing Complete protease inhibitor cocktail tablet and phosphatase inhibitor cocktail 2 (Roche and Sigma, respectively). For Met tyrosine phosphorylation and MAPK phosphorylation studies, cells were serum-starved for 2 hr with 0.5% BSA. Cells treated with 10 μg/ml anti-Met 5D5-Fab or rSema were incubated for an additional 1 hr prior to lysis. Cell debris was centrifuged and the supernatant was precleared with Protein A Sepharose (Sigma) or Protein G-Plus agarose beads (Santa Cruz) for 1 hr. 500 μg of lysates was then immunoprecipitated with 10 μg 5D5 antibody (Genentech) or 35 ul of Met (C-28) agarose conjugate (Santa Cruz) overnight at 4° C. with rotation. For HGF binding studies, 500 μg of lysates were incubated with 5 μg scHGF or HGF followed by immunoprecipitation with 1 μg of V5 antibody. Protein A or G beads were added for an additional 2 hrs before immunoprecipitates were washed 3 times with 1% NP40 lysis buffer. After addition of 2× sample buffer with 10 mM DTT, the samples were run on 4-12% Tris-glycine gels (Invitrogen). […] Proteins were detected by enhanced chemiluminescence (ECL-Plus, Amersham).
(§2) Human tumor cells were treated with increasing concentrations of rSema and analyzed for Met tyrosine phosphorylation and downstream activation of mitogen activated protein kinase (MAPK) upon HGF stimulation. […]

MDA-MB-435 cells = assay: Transwell migration assay; assay type: cell-based, Human; settings: MDA-MB-435, 10 μg/ml in upper chamber, absence of HGF, vs mock
Experimental: Transwell migration assays were carried out as previously described with modifications (Coltella et al., 2003). MDA-MB-435 cells were seeded at 1.2×10^5 cells in media containing 0.5% BSA to the upper chamber of each transwell (Costar) that had been previously coated with 10 ug/ml collagen type IV (Sigma). Mock, 10 μg/ml anti-Met 5D5-Fab, or 10 μg/ml Sema was added to the upper chamber. As a positive control, 100 ng/ml HGF was also added to the lower chamber of mock-treated wells. The next day, the cells were fixed with 4% paraformaldehyde and stained with 0.5% crystal violet. Cells that had migrated to the lower chamber were solubilized with 10% acetic acid and the absorbance was measured at 560 nm in a microplate reader.
A transwell assay with MDA-MB-435 cells was used to measure Met driven cell migration (Coltella et al., 2003). […] The data correlated with the scrape assay results in the H441 cell line. Activation of Akt was also examined in H441 and MDA-MB-435 cells used in the cell motility and migration assays. […] The data correlated with observations that rSema can inhibit cell motility in the presence of ligand. […]

Met = Met (Homo sapiens, UniProt P08581); assay: Met tyrosine phosphorylation in A549 cells (immunoprecipitation / phosphotyrosine immunoblot); assay type: cell-based; parameters: endogenous in cells; host or cells: A549 (lung carcinoma)
Experimental: as §1, §2

H441 cells = assay: Scrape assay (Met mediated cell motility); assay type: cell-based, Human
Experimental: H441 cells were seeded at a density of 4.5×10^4 cells/well in a 96-well plate with 10% FBS in 50:50 DMEM/F12. The next day, a single scrape was made in the confluent monolayer in each well as described previously (Lorenzato et al., 2002). The cells were then incubated with media containing 0.5% BSA and treated with mock, 10 μg/ml 5D5, 10 μg/ml Sema, or 100 ng/ml HGF. The scrape was monitored and photographed daily. Representative results are shown for Day 2.
H441 cells were used in a scrape assay as a measure of Met mediated cell motility (Lorenzato et al., 2002). H441 cells grown to high density were scraped in each well on day 0 and maintained in serum-free media containing 0.5% BSA for the duration of the experiment (FIG. 6). Cells were either treated with 10 μg/ml rSema or 5D5 or 100 ng/ml HGF as a positive control or mock treated. […] These observations were consistent in four separate experiments.
To examine the effect of rSema on cell motility in the presence of ligand, cells were treated with 0, 0.1, 0.5, or 5 μg/ml rSema plus 20 ng/ml HGF. Cells treated with HGF alone closed the gap completely by Day 1.

Akt [2] = assay: Akt phosphorylation in H441 cells; assay type: cell-based, Human; settings: H441, increasing concentrations of rSema in the presence of HGF; data not shown
Text: (§3) A transwell assay with MDA-MB-435 cells was used to measure Met driven cell migration (Coltella et al., 2003). […] The data correlated with the scrape assay results in the H441 cell line. Activation of Akt was also examined in H441 and MDA-MB-435 cells used in the cell motility and migration assays. […] The data correlated with observations that rSema can inhibit cell motility in the presence of ligand. Taken together, these observations supports the conclusion that a Sema domain antagonist, such as a recombinant polypeptide comprising a Sema sequence, is capable of not only inhibiting Met activation, but also blocking downstream effects of cell motility and migration in both ligand dependent and independent contexts.

MAPK [3] = assay: MAPK phosphorylation in H441 cells (immunoblot); assay type: cell-based, Human
Experimental: as §1, with “hr.” for “hr. 500 μg of lysates was then immunoprecipitated with 10 μg 5D5 antibody (Genentech) or 35 ul of Met (C-28) agarose conjugate (Santa Cruz) overnight at 4° C. with rotation. For HGF binding studies, 500 μg of lysates were incubated with 5 μg scHGF or HGF followed by immunoprecipitation with 1 μg of V5 antibody. Protein A or G beads were added for an additional 2 hrs before immunoprecipitates were washed 3 times with 1% NP40 lysis buffer. After addition of 2× sample buffer with 10 mM DTT, the samples were run on 4-12% Tris-glycine gels (Invitrogen).”
as §2

MAPK [4] = assay: MAPK phosphorylation in MDA-MB-435 cells (immunoblot); assay type: cell-based, Human
Experimental: as §1, with “hr.” for “hr. 500 μg of lysates was then immunoprecipitated with 10 μg 5D5 antibody (Genentech) or 35 ul of Met (C-28) agarose conjugate (Santa Cruz) overnight at 4° C. with rotation. For HGF binding studies, 500 μg of lysates were incubated with 5 μg scHGF or HGF followed by immunoprecipitation with 1 μg of V5 antibody. Protein A or G beads were added for an additional 2 hrs before immunoprecipitates were washed 3 times with 1% NP40 lysis buffer. After addition of 2× sample buffer with 10 mM DTT, the samples were run on 4-12% Tris-glycine gels (Invitrogen).”
as §2

Akt [5] = assay: Akt phosphorylation in MDA-MB-435 cells; assay type: cell-based, Human; settings: MDA-MB-435, increasing concentrations of rSema in the presence of HGF; data not shown
Text: as §3

[6] = A549, serum-free, 10 μg/ml, absence of HGF, vs mock

Met, sequence (P08581 308-1390, one chain of several): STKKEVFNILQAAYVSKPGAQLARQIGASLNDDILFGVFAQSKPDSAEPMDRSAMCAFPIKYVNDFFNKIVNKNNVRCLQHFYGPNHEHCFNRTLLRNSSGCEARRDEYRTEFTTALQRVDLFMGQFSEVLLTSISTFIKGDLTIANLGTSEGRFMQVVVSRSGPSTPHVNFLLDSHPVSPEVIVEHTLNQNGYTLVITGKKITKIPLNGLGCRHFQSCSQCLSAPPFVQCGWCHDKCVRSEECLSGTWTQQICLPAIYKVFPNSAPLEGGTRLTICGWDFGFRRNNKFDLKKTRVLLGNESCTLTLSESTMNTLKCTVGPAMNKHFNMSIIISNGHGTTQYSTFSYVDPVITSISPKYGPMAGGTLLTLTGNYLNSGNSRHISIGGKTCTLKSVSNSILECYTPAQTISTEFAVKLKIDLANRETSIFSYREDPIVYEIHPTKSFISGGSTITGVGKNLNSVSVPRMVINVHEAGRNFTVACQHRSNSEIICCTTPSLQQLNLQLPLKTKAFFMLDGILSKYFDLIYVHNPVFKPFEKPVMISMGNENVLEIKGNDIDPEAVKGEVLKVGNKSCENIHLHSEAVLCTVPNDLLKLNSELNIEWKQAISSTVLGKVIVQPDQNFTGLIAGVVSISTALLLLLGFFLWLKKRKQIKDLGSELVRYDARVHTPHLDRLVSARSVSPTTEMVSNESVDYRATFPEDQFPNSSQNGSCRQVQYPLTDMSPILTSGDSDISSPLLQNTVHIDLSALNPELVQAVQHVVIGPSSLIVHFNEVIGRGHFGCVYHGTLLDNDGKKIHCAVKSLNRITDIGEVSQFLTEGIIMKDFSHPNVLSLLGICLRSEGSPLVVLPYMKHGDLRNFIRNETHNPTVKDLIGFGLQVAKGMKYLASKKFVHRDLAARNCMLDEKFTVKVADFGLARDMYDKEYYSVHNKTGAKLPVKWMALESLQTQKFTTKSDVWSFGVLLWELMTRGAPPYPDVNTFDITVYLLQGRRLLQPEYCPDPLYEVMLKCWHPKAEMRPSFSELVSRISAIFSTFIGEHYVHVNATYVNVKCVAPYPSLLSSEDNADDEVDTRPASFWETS

B1: rSema: recombinant Sema (rSema) protein, which included the Sema and PSI domains of the Met receptor (residues 25-567, 8×His tag) (protein)
chain: ECKEALAKSEMNVNMKYQLPNFTAETPIQNVILHEHHIFLGATNYIYVLNEEDLQKVAEYKTGPVLEHPDCFPCQDCSSKANLSGGVWKDNINMALVVDTYYDDQLISCGSVNRGTCQRHVFPHNHTADIQSEVHCIFSPQIEEPSQCPDCVVSALGAKVLSSVKDRFINFFVGNTINSSYFPDHPLHSISVRRLKETKDGFMFLTDQSYIDVLPEFRDSYPIKYVHAFESNNFIYFLTVQRETLDAQTFHTRIIRFCSINSGLHSYMEMPLECILTEKRKKRSTKKEVFNILQAAYVSKPGAQLARQIGASLNDDILFGVFAQSKPDSAEPMDRSAMCAFPIKYVNDFFNKIVNKNNVRCLQHFYGPNHEHCFNRTLLRNSSGCEARRDEYRTEFTTALQRVDLFMGQFSEVLLTSISTFIKGDLTIANLGTSEGRFMQVVVSRSGPSTPHVNFLLDSHPVSPEVIVEHTLNQNGYTLVITGKKITKIPLNGLGCRHFQSCSQCLSAPPFVQCGWCHDKCVRSEECLSGTWTQQICLPAIYKHHHHHHHH
B1 was tested, and the “phosphorylation of MAPK” value (MAPK [1]; A549, increasing concentrations of rSema in the presence of HGF (10 ng/ml)) was “phosphorylation of MAPK decreased”, the phospho-MAPK levels (MAPK [1]; [6]) was “inhibition” and the “cell migration (absorbance at 560 nm of migrated cells)” value (MDA-MB-435 cells) was “consistently decreased”. The Met phosphorylation (Met; A549, serum starved, 0-100 μg/ml rSema with 10 ng/ml HGF, 10 min) was “decrease in Met phosphorylation”, the “ligand independent Met phosphorylation” value (Met; [6]) was “inhibition” and the “gap closure in scrape assay in the presence of ligand” value (H441 cells; 0, 0.1, 0.5 or 5 μg/ml rSema plus 20 ng/ml HGF, data not shown) was “retained the gap in a dose dependent manner”. For the same molecule, the “gap closure in scrape assay” value (H441 cells; H441, 10 μg/ml, serum-free, absence of HGF, Day 2, mock gap closed completely) was “a gap remained”, the Akt phosphorylation (Akt [2]) was “dose dependent decrease in Akt phosphorylation” and the phospho-MAPK (MAPK [3]; H441, 0-100 μg/ml rSema plus 5 ng/ml HGF, 5 min) was “dose dependent decrease in phospho-MAPK”. For the same molecule, the MAPK phosphorylation (MAPK [3]; H441, 10 μg/ml, absence of HGF) was “decrease in MAPK phosphorylation”, the phospho-MAPK (MAPK [4]; MDA-MB-435, 0-100 μg/ml rSema plus 10 ng/ml HGF, 5 min) was “dose dependent decrease in phospho-MAPK” and the MAPK phosphorylation (MAPK [4]; MDA-MB-435, 10 μg/ml, absence of HGF) was “decrease in MAPK phosphorylation”. The Akt phosphorylation (Akt [5]) was “dose dependent decrease in Akt phosphorylation”.
